Test results reported in patent US20220411531A1 (SUMGEN MAB BEIJING BIOTECH, published 2022).

Biological target: T1, TYRO3-Fc (ACRO Biosystems) (UniProt Q06418 41-428, limits assumed)
T1 construct: Bought reagent; also called TRYO3; not shown: Fc part
T1 sequence (looked up): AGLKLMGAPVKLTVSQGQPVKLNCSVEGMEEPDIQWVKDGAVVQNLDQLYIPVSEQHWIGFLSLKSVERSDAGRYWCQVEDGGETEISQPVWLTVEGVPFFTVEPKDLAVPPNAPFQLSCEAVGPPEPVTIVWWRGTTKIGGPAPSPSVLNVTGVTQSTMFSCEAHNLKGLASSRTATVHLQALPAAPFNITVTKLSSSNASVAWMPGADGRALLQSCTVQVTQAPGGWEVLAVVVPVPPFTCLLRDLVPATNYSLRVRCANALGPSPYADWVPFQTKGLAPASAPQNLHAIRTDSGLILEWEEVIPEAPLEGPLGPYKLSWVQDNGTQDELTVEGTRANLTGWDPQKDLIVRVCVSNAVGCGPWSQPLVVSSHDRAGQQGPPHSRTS
Experiment: ELISA, TYRO3-Fc coated at 1 µg/ml, anti-human IgG Fab-HRP, OD450
Method: TYRO3-Fc (ACRO Biosystems), MER-His (ACRO Biosystems), and AXL-His (Sino Biological Inc.) each were coated at 1 μg/ml on an ELISA strip, which was held at 4° C. overnight. After the ELISA strips were washed with PBST, 10% fetal bovine serum was added to the ELISA strip, which was blocked for 1 hour at 37° C. Antibodies […], 6G12M21, 6G12M31 and 6G12M41 were added to react at 37° C. for 1 hour. After the ELISA strips were washed with PBST, horseradish peroxidase-labeled goat anti-human IgG Fab secondary antibodies (Goat Anti-Human IgG (Fab′)₂ (HRP), Abcam) were added to react for 30 minutes at 37° C. The ELISA strips were washed 5 times with PBST, and patted and dried on absorbent paper to remove residual droplets as much as possible. 100 μl of TMB (eBioscience, #85-00-420) was added to each well, and the ELISA strips were held for 1.5 min at room temperature (20±5° C.) in the dark. 100 μl of 2N H₂SO₄ stop solution was added to each well to terminate substrate reaction. The OD value was read at 450 nm by a microplate reader to analyze the binding ability of antibodies to the proteins.

binding result: no binding (tested: about 1 µg/mL)
B1: antibody 6G12M11 (antibody, human IgG1, kappa, V domains shown)
VH: QVQLVQSGPGLVKPSQSLSLTCAVTGFSISSGYYWNWIRQFPGQKLEWMGYRSYDGSNNYNPSLKNRISITRDTSKNQFFLKLNSVTSEDTATYYCARGWLLHYTMDYWGQGTTVTVSS
VL: EIVMTQSPSSVSVTLGQSASISCRSSRSLLHSNGFTYLYWYLQKPGQSPQLLIYQMSNLASGVPDRFSGSGSGTDFTLKISRVEAEDVGVYYCGQNLELPLTFGGGTKLEIKR
